According to publication PMC10725505, “Molecular forms of BMP15 and GDF9 in mammalian species that differ in litter size” (Scientific Reports, 2023):

Legend:
[1] = target: native red deer GDF9 (red deer (endogenous in red deer oocytes)); assay: cross-linking; oocyte lysates of sheep, red deer and pig; 2 mM BS3, room temperature, 30 min, reducing SDS-PAGE, beside non-reducing and reducing lanes without cross-linker; Western blot with Mab61A or Mab37A
[2] = target: recombinant pig GDF9 (pig) (UniProt Q6GUA6); assay: cross-linking; recombinant HEK-293 conditioned media (positive control lanes); 2 mM BS3, room temperature, 30 min; reducing SDS-PAGE; Western blot with Mab61A (BMP15) or Mab37A (GDF9)
[3] = target: recombinant pig BMP15 (pig); assay: as above
recombinant ovine GDF9 = target: T1, recombinant ovine GDF9 (sheep (ovine), UniProt O77681 319-453); assay: SPR; ProteOn XPR36; biotinylated hBMPR2 captured (~200 RU) on a streptavidin-coated GLC chip; log2 serial dilutions of partially purified (dialysed, concentrated) 293H-secreted GDF9 or BMP15 as analytes; 25 °C, 100 µl/min; 10 mM HEPES, 500 mM NaCl, 3.4 mM EDTA, 0.005% Tween 20; association 120 s; analyte concentrations not known; conditions: one partner purified
T1 construct: also called recovGDF9; sheep GDF9; source: 293H-secreted media, dialysed and concentrated (partially purified)
T1 sequence (looked up): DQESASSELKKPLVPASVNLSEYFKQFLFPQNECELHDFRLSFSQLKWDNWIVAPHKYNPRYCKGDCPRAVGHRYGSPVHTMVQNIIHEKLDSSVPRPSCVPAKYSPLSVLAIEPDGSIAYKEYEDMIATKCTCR

Molecule: native red deer GDF9 (natural protein)
- stoichiometry N [1]: 2

Molecule: recombinant pig GDF9 (from UniProt Q6GUA6 1-444) (ligand)
- stoichiometry N [2]: 2

Molecule: recombinant pig BMP15 (ligand)
- stoichiometry N [3]: 2

B1: recombinant human (h)BMPR2 ectodomain (receptor, UniProt Q13873 27-151, looked up)
chain: SQNQERLCAFKDPYQQDLGIGESRISHENGTILCSKGSTCYGLWEKSKGDINLVKQGCWSHIGDPQECHYEECVVTTTPPSIQNGTYRFCCCSTDLCNVNFTENFPPPDTTPLSPPHSFNRDETI
modifications: N-biotinylated using EZ-Link sulfo-NHS-LC-biotin (1:1.2 molar ratio)
notes: human BMPR2, extracellular domain, amino acids 27 to 151; captured on a streptavidin-coated sensor chip by its biotin; also called hBMPR2 ectodomain protein; Type 2 receptor; source: baculoviral infected Sf9 insect cells, purified
- Kd (recombinant ovine GDF9): ~1 nM
